Measured values reported in publication doi:10.64898/2025.12.08.693039.

Tested on: LexA (Escherichia coli)
Test: EMSA
Conditions: 0.5 nM DNA or nucleosome, 10 mM Tris-HCl pH 8.0, 130 mM NaCl, 10% glycerol, 0.0075% Tween-20, room temperature, 20 min; 5% native acrylamide gel in 0.3x TBE

YNN1-LexO naked DNA
Kd: < 5 nM
